In PMC11026580:
Read-outs that look alike come from different tables or passages of the source. Blank lines part the entries; values can stand above or below the substance they belong to.

Columns and labels:
[1] = target: IgA2 (m2) C2Q; assay: SEC; analytical size-exclusion chromatography of affinity-purified IgA2 (m2) from small-scale transient transfections; JC co-expressed (LC:HC:JC 1:1:0.5)
[2] = target: extracellular domain of the human FcαRI (human) (UniProt P24071)
[3] = target: extracellular domain of the human FcαRI (human) (UniProt P24071); remark: listed apart in the source

Chain of extracellular domain of the human FcαRI (human) (P24071 22-227): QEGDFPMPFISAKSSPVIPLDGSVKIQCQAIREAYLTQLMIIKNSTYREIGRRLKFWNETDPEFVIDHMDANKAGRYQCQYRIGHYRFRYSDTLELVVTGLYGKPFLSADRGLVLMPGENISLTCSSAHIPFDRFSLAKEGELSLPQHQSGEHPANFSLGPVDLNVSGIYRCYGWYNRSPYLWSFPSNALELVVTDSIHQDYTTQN

stoichiometry N [1]: 2
Substance: IgA2 (m2) C2Q (antibody)

Kd [2]: 193 nM
Substance: IgA2 (m2) C2Q (from UniProt P01877)

Kd [3]: 303 nM
Substance: IgA2 (m2) N2Q (from UniProt P01877)
